Key:
Test in all cases: ELISA; dose-response: host component coated as in the single-dose assay; increasing concentrations of recombinant protein (0–6 µM LipL21, 0–1.5 µM LipL41) in PBS-BSA, 2 h 37°C; KD from non-linear regression, one site-specific binding (GraphPad Prism 7)
[1] = biological target: fibrinogen (human plasma) (human) (UniProt P02671)
[2] = biological target: elastin (human aorta) (human) (UniProt P15502)
[3] = biological target: E-cadherin (human recombinant) (human) (UniProt P12830)
[4] = biological target: plasma fibronectin (human plasma) (human)
[5] = biological target: plasminogen (human plasma) (human)
[6] = biological target: laminin (human placenta) (human)
[7] = biological target: vitronectin (human plasma) (human)
[8] = biological target: collagen type I (rat tail) (rat) (UniProt P02454)
Sequence of UniProt P02454 (P02454 152-1207, chain 1 of 2): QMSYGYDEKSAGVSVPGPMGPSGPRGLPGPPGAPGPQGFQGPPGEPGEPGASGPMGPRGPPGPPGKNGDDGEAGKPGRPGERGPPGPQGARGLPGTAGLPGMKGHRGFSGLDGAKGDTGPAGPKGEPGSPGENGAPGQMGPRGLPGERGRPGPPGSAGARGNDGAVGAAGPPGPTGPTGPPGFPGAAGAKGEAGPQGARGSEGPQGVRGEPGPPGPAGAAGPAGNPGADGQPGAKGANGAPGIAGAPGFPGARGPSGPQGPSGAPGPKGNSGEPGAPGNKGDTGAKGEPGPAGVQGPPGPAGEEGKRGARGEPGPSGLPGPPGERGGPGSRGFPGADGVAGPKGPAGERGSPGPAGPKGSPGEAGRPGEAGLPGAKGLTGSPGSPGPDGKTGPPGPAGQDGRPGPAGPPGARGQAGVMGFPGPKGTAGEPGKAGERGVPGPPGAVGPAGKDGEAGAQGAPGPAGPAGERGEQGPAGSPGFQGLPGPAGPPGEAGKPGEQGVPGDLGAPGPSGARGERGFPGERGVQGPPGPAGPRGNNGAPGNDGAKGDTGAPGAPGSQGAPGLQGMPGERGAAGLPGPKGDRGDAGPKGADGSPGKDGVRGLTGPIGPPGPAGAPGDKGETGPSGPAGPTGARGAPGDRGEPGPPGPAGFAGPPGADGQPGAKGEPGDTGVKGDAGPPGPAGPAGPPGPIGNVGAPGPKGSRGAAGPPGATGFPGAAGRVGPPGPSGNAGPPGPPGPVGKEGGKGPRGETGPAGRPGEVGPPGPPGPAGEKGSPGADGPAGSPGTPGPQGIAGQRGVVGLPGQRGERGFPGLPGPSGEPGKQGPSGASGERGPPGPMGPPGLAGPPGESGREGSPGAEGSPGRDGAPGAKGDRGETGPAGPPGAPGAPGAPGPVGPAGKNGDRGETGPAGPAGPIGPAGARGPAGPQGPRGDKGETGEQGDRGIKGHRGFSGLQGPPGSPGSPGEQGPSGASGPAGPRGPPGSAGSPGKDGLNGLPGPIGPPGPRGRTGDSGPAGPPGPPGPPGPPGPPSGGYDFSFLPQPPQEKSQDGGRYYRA
Sequence of UniProt P02454 (P02466 86-1125, chain 2 of 2, further chain): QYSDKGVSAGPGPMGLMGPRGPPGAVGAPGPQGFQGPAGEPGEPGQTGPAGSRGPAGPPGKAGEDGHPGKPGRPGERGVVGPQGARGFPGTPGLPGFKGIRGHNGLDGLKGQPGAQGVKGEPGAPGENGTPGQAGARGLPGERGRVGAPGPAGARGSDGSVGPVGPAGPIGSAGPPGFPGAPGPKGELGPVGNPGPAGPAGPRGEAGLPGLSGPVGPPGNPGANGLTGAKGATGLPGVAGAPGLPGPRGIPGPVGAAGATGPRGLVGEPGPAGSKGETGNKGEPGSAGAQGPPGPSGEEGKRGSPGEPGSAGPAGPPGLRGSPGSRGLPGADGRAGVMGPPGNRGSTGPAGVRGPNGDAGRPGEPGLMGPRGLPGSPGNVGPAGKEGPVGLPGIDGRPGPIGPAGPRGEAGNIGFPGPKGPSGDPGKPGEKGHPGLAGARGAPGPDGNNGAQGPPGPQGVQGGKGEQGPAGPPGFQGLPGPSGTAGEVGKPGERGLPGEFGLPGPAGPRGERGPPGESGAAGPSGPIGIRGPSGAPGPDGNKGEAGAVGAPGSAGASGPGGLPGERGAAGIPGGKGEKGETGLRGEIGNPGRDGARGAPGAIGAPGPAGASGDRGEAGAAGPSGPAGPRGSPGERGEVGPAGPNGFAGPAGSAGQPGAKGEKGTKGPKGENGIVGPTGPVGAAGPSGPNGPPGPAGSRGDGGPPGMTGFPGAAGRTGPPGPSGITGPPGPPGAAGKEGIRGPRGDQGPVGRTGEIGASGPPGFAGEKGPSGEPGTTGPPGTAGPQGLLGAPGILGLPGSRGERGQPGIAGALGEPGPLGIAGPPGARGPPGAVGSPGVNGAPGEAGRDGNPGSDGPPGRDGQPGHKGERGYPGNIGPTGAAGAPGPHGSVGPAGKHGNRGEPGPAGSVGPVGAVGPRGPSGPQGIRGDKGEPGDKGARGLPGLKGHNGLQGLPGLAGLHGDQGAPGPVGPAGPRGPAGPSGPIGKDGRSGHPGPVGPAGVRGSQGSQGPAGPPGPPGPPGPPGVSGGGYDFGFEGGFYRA

[9] = biological target: collagen IV

Sequence of UniProt P15502 (P15502 27-786): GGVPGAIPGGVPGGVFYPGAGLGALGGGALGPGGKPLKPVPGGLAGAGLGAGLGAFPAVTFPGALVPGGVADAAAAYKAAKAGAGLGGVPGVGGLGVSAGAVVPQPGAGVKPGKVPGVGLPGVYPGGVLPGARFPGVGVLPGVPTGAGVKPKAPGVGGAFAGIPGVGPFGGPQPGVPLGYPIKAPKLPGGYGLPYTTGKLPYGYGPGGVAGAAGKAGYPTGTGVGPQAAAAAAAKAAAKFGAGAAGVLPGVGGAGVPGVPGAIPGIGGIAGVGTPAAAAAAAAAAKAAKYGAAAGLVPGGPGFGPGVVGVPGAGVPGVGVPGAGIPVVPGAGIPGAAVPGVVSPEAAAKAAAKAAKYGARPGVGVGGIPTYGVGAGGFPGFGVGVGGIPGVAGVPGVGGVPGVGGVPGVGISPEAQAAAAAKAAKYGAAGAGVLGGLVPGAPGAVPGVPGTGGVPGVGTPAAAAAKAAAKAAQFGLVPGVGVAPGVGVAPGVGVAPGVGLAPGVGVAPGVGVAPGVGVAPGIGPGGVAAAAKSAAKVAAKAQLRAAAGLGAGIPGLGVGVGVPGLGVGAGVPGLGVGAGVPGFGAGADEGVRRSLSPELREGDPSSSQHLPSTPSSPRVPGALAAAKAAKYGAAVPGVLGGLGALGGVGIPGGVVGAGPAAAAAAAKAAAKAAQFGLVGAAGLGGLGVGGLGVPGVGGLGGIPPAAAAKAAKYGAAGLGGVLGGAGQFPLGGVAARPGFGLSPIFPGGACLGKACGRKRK
Sequence of UniProt P02671 (P02671 36-866, chain 1 of 3): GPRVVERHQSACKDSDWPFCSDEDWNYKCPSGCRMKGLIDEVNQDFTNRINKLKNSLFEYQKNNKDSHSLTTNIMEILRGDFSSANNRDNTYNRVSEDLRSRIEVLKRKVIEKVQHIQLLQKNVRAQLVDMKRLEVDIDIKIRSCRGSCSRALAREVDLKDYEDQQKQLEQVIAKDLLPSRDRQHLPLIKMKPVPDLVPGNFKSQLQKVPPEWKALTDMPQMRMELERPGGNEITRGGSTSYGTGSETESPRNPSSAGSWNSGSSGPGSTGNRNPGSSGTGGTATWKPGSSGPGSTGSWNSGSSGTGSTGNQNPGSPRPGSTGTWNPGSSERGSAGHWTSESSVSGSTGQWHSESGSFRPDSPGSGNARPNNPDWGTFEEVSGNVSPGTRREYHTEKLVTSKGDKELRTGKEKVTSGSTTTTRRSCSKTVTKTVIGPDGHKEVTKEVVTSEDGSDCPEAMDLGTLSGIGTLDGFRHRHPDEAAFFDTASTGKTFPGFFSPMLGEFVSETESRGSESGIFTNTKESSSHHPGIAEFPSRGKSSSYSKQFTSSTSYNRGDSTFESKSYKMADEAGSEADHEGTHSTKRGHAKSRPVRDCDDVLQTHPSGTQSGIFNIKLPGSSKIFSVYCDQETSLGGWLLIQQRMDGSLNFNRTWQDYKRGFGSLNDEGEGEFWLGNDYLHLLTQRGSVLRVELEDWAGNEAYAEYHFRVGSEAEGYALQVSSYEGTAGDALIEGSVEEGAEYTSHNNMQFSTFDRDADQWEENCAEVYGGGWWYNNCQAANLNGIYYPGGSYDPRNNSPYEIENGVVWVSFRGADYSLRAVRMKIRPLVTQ
Sequence of UniProt P02671 (P02675 45-491, chain 2 of 3, further chain): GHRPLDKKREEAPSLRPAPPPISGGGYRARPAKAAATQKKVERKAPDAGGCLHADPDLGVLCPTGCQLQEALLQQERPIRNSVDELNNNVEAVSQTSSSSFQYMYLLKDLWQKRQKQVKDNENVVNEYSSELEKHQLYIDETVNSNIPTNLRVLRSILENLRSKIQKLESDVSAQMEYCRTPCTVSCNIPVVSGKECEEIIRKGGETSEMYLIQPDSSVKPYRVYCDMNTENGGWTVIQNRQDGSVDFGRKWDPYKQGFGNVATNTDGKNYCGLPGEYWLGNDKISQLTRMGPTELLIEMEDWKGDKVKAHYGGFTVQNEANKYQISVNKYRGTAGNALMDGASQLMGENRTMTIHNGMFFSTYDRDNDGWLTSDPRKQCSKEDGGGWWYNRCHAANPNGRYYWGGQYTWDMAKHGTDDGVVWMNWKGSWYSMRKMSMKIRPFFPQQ
Sequence of UniProt P02671 (P02679 27-453, chain 3 of 3, further chain): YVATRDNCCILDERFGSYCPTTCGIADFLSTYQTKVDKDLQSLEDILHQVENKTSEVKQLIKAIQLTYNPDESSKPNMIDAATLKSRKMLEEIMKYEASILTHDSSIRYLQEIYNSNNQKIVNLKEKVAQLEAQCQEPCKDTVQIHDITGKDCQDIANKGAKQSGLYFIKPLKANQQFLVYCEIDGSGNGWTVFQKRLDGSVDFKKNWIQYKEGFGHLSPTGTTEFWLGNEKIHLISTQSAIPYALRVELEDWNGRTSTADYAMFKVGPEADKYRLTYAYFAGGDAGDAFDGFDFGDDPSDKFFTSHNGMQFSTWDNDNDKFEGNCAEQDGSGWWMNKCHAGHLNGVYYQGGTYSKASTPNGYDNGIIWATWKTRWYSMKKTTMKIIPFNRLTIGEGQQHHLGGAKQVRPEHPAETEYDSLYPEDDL

Substance | Kd [1] [nM] | Kd [2] [nM] | Kd [3] [nM] | Kd [4] [nM] | Kd [5] [nM] | Kd [6] [nM] | Kd [7] [nM] | Kd [8] [nM] | Kd [9] [nM]
recombinant LipL21 (LIC10011) (natural protein) | 1120 | 171 | 147 | 2540 | 13.8 | 287 | 424 | 6140 | 53.9
recombinant LipL41 (LIC12966) (natural protein) |  | 2720 | 1380 |  |  | 312 |  |  | 537

Reference: publication PMC8632080
